Data from publication PMC7508890.

Experiments:
[1] = biological target: recombinant hemagglutinin (HA) derived from A/Thailand/CU44/2006, wild type (influenza A virus A/Thailand/CU44/2006); assay: SEC-MALS
[2] = biological target: recombinant hemagglutinin (HA) derived from A/Thailand/CU44/2006, wild type (influenza A virus A/Thailand/CU44/2006); assay: […]; 20 mM Tris-HCl pH 8.0, 100 mM NaCl

“recombinant hemagglutinin (HA) derived from A/Thailand/CU44/2006, wild type (natural protein)” showed a stoichiometry N [1] of 9 HA trimers and a stoichiometry N [2] of 3.
